The record followed here is article PMC3514216, “SRC Homology 2 Domain Binding Sites in Insulin, IGF-1 and FGF receptor mediated signaling networks reveal an extensive potential interactome” (Cell Communication and Signaling : CCS, 2012).

Non-standard residues stand in square brackets, D forms with d. No end group written: not given here. pY = N[C@@H](Cc1ccc(OP(=O)(O)O)cc1)C(=O)O

One may read the Kd as the constant that tells how readily two partners part at equilibrium.

What all share (settings): both partners purified
One assay concerns the target T1, GST-Abl1 SH2 domain (human, UniProt P00519 127-217).
T1 construct: SH2 domain of Abl1; source: E. coli BL21, purified (glutathione sepharose, NAP-10)
T1 sequence (looked up): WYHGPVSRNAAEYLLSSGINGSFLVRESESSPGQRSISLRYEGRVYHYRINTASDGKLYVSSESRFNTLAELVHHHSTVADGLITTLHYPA
The experiment in a line: fluorescence polarisation; Rhodamine B-labelled peptide in solution with SH2 domain; Beacon 2000; as previously described [40]. Background: Polarisation of emitted light reports the rotation of a fluorescent probe.

The target of the next assay is T2, GST-Fer SH2 domain (human, UniProt P16591 460-550).
T2 construct: SH2 domain of Fer; source: E. coli BL21, purified (glutathione sepharose, NAP-10)
T2 sequence (P16591 460-550): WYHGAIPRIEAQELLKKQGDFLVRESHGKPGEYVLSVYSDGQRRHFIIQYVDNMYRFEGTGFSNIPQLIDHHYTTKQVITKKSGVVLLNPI
The description is as above.

In a further assay the target is T3, GST-Fgr SH2 domain (human, UniProt P09769 144-241).
T3 construct: SH2 domain of Fgr; source: E. coli BL21, purified (glutathione sepharose, NAP-10)
The description is as above.

Another assay concerns the target T4, GST-Itk SH2 domain (human, UniProt Q08881 239-338).
T4 construct: SH2 domain of Itk; source: E. coli BL21, purified (glutathione sepharose, NAP-10)
T4 sequence (looked up): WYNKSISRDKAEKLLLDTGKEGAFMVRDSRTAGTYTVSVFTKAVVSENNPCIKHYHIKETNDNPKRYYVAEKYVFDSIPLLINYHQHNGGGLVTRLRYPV
Described as above.

A further assay addresses T5, GST-Abl2 SH2 domain (human, UniProt P42684 173-263).
T5 construct: SH2 domain of Abl2; source: E. coli BL21, purified (glutathione sepharose, NAP-10)
T5 sequence (looked up): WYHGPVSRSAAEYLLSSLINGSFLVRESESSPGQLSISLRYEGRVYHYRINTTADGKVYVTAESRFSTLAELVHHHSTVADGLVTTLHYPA
Described as above.

The target of a further assay is T6, GST-Nck1 SH2 domain (human, UniProt P16333 282-376).
T6 construct: SH2 domain of Nck1; source: E. coli BL21, purified (glutathione sepharose, NAP-10)
Described as above.

Another assay deals with T7, GST-Sh3bp2 SH2 domain (human, UniProt P78314 457-555).
T7 construct: SH2 domain of Sh3bp2; source: E. coli BL21, purified (glutathione sepharose, NAP-10)
T7 sequence (looked up): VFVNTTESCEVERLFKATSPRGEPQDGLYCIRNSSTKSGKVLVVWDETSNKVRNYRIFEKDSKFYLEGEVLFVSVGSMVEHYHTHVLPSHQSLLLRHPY
Described as above.

A further assay addresses T8, GST-Shc1 SH2 domain (human, UniProt P29353 488-579).
T8 construct: SH2 domain of Shc1; source: E. coli BL21, purified (glutathione sepharose, NAP-10)
T8 sequence (looked up): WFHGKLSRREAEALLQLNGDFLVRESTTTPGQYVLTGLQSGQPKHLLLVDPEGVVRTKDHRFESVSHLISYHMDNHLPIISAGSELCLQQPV
The description is as above.

Another assay addresses T9, GST-Src SH2 domain (human, UniProt P12931 151-248).
T9 construct: SH2 domain of Src; source: E. coli BL21, purified (glutathione sepharose, NAP-10)
Described as above.

The target in a further assay is T10, GST-Vav1 SH2 domain (human, UniProt P15498 671-765).
T10 construct: SH2 domain of Vav1; source: E. coli BL21, purified (glutathione sepharose, NAP-10)
T10 sequence (looked up): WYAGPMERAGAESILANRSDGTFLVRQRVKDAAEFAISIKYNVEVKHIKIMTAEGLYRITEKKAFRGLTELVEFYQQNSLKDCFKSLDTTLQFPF
The assay is described as above.

The next assay addresses T11, GST-Brk SH2 domain (human, UniProt Q13882 78-170).
T11 construct: SH2 domain of Brk; source: E. coli BL21, purified (glutathione sepharose, NAP-10)
Described as above.

In another assay the target is T12, GST-Crk SH2 domain (human, UniProt P46108 13-118).
T12 construct: SH2 domain of Crk; source: E. coli BL21, purified (glutathione sepharose, NAP-10)
T12 sequence (P46108 13-118): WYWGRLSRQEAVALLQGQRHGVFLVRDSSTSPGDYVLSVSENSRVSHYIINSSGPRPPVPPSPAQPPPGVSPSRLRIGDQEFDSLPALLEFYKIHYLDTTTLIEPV
The assay is described as above.

The target of a further assay is T13, GST-Grb2 SH2 domain (human, UniProt P62993 60-152).
T13 construct: SH2 domain of Grb2; source: E. coli BL21, purified (glutathione sepharose, NAP-10)
T13 sequence (P62993 60-152): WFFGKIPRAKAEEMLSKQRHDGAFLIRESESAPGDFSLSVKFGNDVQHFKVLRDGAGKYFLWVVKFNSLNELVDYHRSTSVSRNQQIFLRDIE
Described as above.

Another assay concerns the target T14, GST-CrkL SH2 domain (human, UniProt P46109 14-102).
T14 construct: SH2 domain of CrkL; source: E. coli BL21, purified (glutathione sepharose, NAP-10)
The assay is described as above.

The next assay deals with T15, GST-Sh2d1b SH2 domain (human, UniProt O14796 5-101).
T15 construct: SH2 domain of Sh2d1b (Eat-2); also called Eat-2; source: E. coli BL21, purified (glutathione sepharose, NAP-10)
T15 sequence (looked up): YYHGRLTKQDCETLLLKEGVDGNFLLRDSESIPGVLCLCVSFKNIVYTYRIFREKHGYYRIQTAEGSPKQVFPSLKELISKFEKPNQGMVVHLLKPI
The assay is described as above.

For the next assay, the target named is T16, GST-Shb SH2 domain (human, UniProt Q15464 410-504).
T16 construct: SH2 domain of Shb; source: E. coli BL21, purified (glutathione sepharose, NAP-10)
T16 sequence (Q15464 410-504): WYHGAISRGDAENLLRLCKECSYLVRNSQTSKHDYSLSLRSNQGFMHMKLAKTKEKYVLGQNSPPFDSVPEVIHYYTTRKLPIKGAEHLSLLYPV
Described as above.

For the next assay, the target named is T17, GST-Yes SH2 domain (human, UniProt P07947 158-255).
T17 construct: SH2 domain of the kinase Yes; source: E. coli BL21, purified (glutathione sepharose, NAP-10)
T17 sequence (P07947 158-255): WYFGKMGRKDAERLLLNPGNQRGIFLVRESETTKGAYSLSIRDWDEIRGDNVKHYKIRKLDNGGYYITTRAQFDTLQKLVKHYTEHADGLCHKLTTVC
The experiment in a line: peptide or protein array; SPOT array of 192 membrane-bound 11-mer phosphotyrosine peptides; GST-SH2 0.25 uM in TBS-T with 5% nonfat milk and 1 mM DTT, 1.5 h, room temperature; anti-GST and Alexa-Fluor-680 secondary, Li-Cor Odyssey; array positive >3X the array mean, array negative <1X, indeterminate between.

The next assay addresses T18, GST-Ship2 SH2 domain (human, UniProt O15357 21-117).
T18 construct: SH2 domain of Ship2; source: E. coli BL21, purified (glutathione sepharose, NAP-10)
T18 sequence (looked up): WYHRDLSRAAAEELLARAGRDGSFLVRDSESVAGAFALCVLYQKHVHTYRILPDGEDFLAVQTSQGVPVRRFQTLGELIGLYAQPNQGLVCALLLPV
The assay is described as follows: fluorescence polarisation; Rhodamine B-labelled peptide in solution with SH2 domain; Beacon 2000; as previously described [40].

The target of another assay is T19, GST-Sh2b SH2 domain (human, UniProt Q9NRF2 527-625).
T19 construct: SH2 domain of Sh2b; source: E. coli BL21, purified (glutathione sepharose, NAP-10)
Described as above.

Another assay addresses T20, GST-Tenc1 SH2 domain (human, UniProt Q63HR2 1140-1247).
T20 construct: source: E. coli BL21, purified (glutathione sepharose, NAP-10)
T20 sequence (looked up): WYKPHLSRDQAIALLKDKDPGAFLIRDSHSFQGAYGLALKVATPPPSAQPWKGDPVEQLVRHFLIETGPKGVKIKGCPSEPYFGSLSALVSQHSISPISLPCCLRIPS
Described as above.

T14 sequence (P46109 14-102): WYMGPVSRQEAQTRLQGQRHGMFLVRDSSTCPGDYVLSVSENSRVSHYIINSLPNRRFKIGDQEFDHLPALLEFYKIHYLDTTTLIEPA
T11 sequence (Q13882 78-170): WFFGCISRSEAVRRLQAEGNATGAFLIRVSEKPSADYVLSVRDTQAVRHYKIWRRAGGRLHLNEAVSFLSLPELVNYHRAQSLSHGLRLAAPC

B1: p62DOK1 (Y398) phosphopeptide KEEGpYELPYNP, Rhodamine B-labelled (peptide)
peptide: KEEG[pY]ELPYNP
modifications: not fully specified (N-terminus); also: Rhodamine B label, site not given here
notes: p62DOK1 around Y398; source: synthetic peptide (FMOC chemistry), purified by LC/MS
With B1, the Kd with GST-Abl1 SH2 domain came out at 5.77 µM; with GST-Fer SH2 domain, 13.3 µM; with GST-Fgr SH2 domain, 2040 nM; with GST-Itk SH2 domain it was 5.43 µM; in the assay with GST-Abl2 SH2 domain, 3.47 µM; with GST-Nck1 SH2 domain, 4370 nM. Besides, the Kd with GST-Sh3bp2 SH2 domain is 1680 nM; with GST-Shc1 SH2 domain, 5.74 µM; in the assay with GST-Src SH2 domain, 5.06 µM; in the assay with GST-Vav1 SH2 domain, 4.73 µM; with GST-Brk SH2 domain, 420 nM; with GST-Crk SH2 domain it was 23.7 µM.

B2: IRS-1 (Y1179) phosphopeptide NGLNpYIDLDLV, Rhodamine B-labelled (peptide)
peptide: NGLN[pY]IDLDLV
modifications: not fully specified (N-terminus); also: Rhodamine B label, site not given here
notes: IRS-1 around Y1179; source: synthetic peptide (FMOC chemistry), purified by LC/MS
B2: the Kd with GST-Abl1 SH2 domain was 22.2 µM; in the assay with GST-Grb2 SH2 domain it was above 50000 nM; in the assay with GST-Src SH2 domain, 9.94 µM; with GST-CrkL SH2 domain, above 50 µM.

B3: FGFR1 (Y463) phosphopeptide GVSEpYELPEDP, Rhodamine B-labelled (peptide)
peptide: GVSE[pY]ELPEDP
modifications: not fully specified (N-terminus); also: Rhodamine B label, site not given here
notes: FGFR1 around Y463; also called FGFR1 pY-463; source: synthetic peptide (FMOC chemistry), purified by LC/MS
As to B3, the Kd was 2450 nM with GST-Nck1 SH2 domain; 6.85 µM in the assay with GST-Src SH2 domain; 1.87 µM with GST-Vav1 SH2 domain; 44 µM with GST-Crk SH2 domain; above 50 µM in the assay with GST-CrkL SH2 domain.

B4: FGFR3 (Y760) phosphopeptide STDEpYLDLSAP, Rhodamine B-labelled (peptide)
peptide: STDE[pY]LDLSAP
modifications: also: Rhodamine B label, site not given here
notes: FGFR3 around Y760; source: synthetic peptide (FMOC chemistry), purified by LC/MS
B4: the values for the Kd with GST-Abl2 SH2 domain, with GST-Sh2d1b SH2 domain and with GST-Shb SH2 domain were 27 µM, 5.3 µM and above 50 µM, respectively.

B5: p130Cas (Y234) peptide EQDEYDIPRHL, SPOT array (peptide)
peptide: EQDE[pY]DIPRHL
modifications: also: membrane-bound on SPOT array
notes: p130Cas (BCAR1) around Y234; source: synthetic peptide, SPOT synthesis on cellulose membrane
As for B5, in the assay with GST-Yes SH2 domain, the binding result is given as “binds”.

B6: p130Cas (Y362) phosphopeptide AEDVpYDVPPPA, Rhodamine B-labelled (peptide)
peptide: AEDV[pY]DVPPPA
modifications: not fully specified (N-terminus); also: Rhodamine B label, site not given here
notes: p130Cas (BCAR1) around Y362; source: synthetic peptide (FMOC chemistry), purified by LC/MS
On to B6, for which the Kd is 14 µM with GST-Abl2 SH2 domain; 930 nM with GST-Nck1 SH2 domain; 32.8 µM with GST-Shc1 SH2 domain; 16.5 µM with GST-Ship2 SH2 domain; 0.35 µM with GST-Crk SH2 domain; 0.99 µM with GST-CrkL SH2 domain.

B7: IRS-1 (Y896) phosphopeptide SPGEpYVNIEFG, Rhodamine B-labelled (peptide)
peptide: SPGE[pY]VNIEFG
modifications: also: Rhodamine B label, site not given here
notes: IRS-1 around Y896; source: synthetic peptide (FMOC chemistry), purified by LC/MS
For B7, the Kd with GST-Abl1 SH2 domain worked out at 7.48 µM; with GST-Grb2 SH2 domain, 800 nM; with GST-Abl2 SH2 domain it was 3.66 µM; with GST-Sh2b SH2 domain, 3.58 µM; with GST-Src SH2 domain it was 2.21 µM; with GST-Tenc1 SH2 domain, 24 µM. The molecule also returned a Kd with GST-Crk SH2 domain above 20 µM.
